Measured values as given in US20230390320A1 (RZNOMICS, published 2023).

Key:
human PD1 (hPD1) = target: T1, human PD1 (hPD1) (human, UniProt Q15116 25-288, limits assumed); assay: ELISA; lysate of hPD1-expressing cells coated on plate, scFv from stable 293A culture medium
T1 construct: Stood in the ELISA as a lysate of cells expressing hPD1

mouse PD1 (mPD1) = target: T2, mouse PD1 (mPD1) (mouse, UniProt Q02242 25-288, limits assumed); assay: ELISA; lysate of mPD1-expressing cells coated on plate, scFv from stable 293A culture medium
T2 construct: Stood in the ELISA as a lysate of cells expressing mPD1
T2 sequence (looked up): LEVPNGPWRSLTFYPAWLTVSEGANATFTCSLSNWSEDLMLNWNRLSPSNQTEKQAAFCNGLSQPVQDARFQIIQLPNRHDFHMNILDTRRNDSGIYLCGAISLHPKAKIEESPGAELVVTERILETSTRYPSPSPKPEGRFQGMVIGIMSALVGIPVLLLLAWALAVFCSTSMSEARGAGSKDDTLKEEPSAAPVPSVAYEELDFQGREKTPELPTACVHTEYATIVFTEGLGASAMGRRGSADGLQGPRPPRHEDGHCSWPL

T1 sequence (Q15116 25-288 limits assumed): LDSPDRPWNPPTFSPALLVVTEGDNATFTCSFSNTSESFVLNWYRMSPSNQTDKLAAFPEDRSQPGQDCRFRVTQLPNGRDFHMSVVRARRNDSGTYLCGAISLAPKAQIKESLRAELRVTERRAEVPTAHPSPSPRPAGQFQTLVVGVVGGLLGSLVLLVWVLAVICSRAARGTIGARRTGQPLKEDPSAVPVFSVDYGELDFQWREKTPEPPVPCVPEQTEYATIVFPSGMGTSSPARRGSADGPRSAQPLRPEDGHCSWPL

B1: scFvPD1(I) (scFv, not shown: small tags and cut ends)
scFv: QVQLVQSGAEVKKPGASVKVSCKASGYTFTAQYMHWVRQAPGQGLEWMGIINPSGGETGYAQKFQGRVTMTRDTSTSTVYMELSSLRSEDTAVYYCAKEGVADGYGLVDVWGQGTMVTVSSGGGGSGGGGSGGGGSGGGGSEIVLTQSPATLSLSPGERATLSCRASQSVSSYLAWYQQKPGQAPRLLIYDASKRATGIPARFSGSGSGTDFTLTISSLEPEDFAVYYCDQRNNWPLTFGGGTKVEIK
notes: also called single chain variable fragment PD1; PD1scFv
B1: binds (human PD1 (hPD1)); binds (mouse PD1 (mPD1)).
